In one test the target is Clone 3.2.20. Briefly: yeast display flow cytometry titration; apparent. (In general: Flow cytometry measures light scatter and fluorescence of single cells or particles in a stream.)
The next test has as its target Clone 3.2.1. Briefly: yeast display flow cytometry titration; estimated.
For another test, the target named is Clone 3.2.22. As to the kind of experiment: yeast display flow cytometry titration; estimated.
The target of another test is Clone 3.2.16. As to the kind of experiment: yeast display flow cytometry titration; estimated.
Another test has as its target Clone 3.2.17. As to the kind of experiment: yeast display flow cytometry titration; estimated.
A further test has as its target 1DD-Fn-v4 Monomers. As to the kind of experiment: flow cytometry titration on cells; apparent.

B1: EpCAM (receptor)
chain: QEECVCENYKLAVNCFVNNNRQCQCTSVGAQNTVICSKLAAKCLVMKAEMNGSKLGRRAKPEGALQNNDGLYDPDCDESGLFKAKQCNGTSMCWCVNTAGVRRTDKDTEITCSERVRTYWIIIELKHKAREKPYDSKSLRTALQKEITTRYQLDPKFITSILYENNVITIDLVQNSSQKTQNDVDIADVAYYFEKDVKGESLFHSKKMDLTVNGEQLDLDPGQTLIYYVDEKAPEFSMQGLK
modifications: biotinylated (site not stated)
For B1, the Kd was 140 nM with Clone 3.2.20; 190 nM with Clone 3.2.1; 190 nM with Clone 3.2.22; 150 nM in the test with Clone 3.2.16; 130 nM with Clone 3.2.17.

B2: MCF-7 Cells (receptor)
chain: QEECVCENYKLAVNCFVNNNRQCQCTSVGAQNTVICSKLAAKCLVMKAEMNGSKLGRRAKPEGALQNNDGLYDPDCDESGLFKAKQCNGTSMCWCVNTAGVRRTDKDTEITCSERVRTYWIIIELKHKAREKPYDSKSLRTALQKEITTRYQLDPKFITSILYENNVITIDLVQNSSQKTQNDVDIADVAYYFEKDVKGESLFHSKKMDLTVNGEQLDLDPGQTLIYYVDEKAPEFSMQGLKAGVIAVIVVVVIAVVAGIVVLVISRKKRMAKYEKAEIKEMGEMHRELNA
Regarding B2, the Kd with 1DD-Fn-v4 Monomers was 34.8 nM.

(Values after patent US20180251524A1 (published 2018).)
